T1: TbrCan2 E341A (Thermoanaerobacter brockii subsp. …, UniProt E8URK0 1-437, E341A)
T1 sequence: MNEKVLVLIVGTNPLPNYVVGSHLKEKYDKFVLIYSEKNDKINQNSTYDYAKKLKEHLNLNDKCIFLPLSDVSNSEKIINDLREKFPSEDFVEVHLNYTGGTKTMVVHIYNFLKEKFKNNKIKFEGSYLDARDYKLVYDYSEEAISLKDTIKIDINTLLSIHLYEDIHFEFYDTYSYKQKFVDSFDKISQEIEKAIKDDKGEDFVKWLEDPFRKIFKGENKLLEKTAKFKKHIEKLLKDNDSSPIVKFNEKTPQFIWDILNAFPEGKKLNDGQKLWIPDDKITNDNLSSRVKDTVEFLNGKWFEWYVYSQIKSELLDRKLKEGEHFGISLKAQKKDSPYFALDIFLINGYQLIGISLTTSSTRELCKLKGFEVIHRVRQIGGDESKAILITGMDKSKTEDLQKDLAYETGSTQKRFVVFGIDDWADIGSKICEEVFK

T2: TbrCan2 E364R (Thermoanaerobacter brockii subsp. …, UniProt E8URK0 1-437, E364R)
T2 sequence: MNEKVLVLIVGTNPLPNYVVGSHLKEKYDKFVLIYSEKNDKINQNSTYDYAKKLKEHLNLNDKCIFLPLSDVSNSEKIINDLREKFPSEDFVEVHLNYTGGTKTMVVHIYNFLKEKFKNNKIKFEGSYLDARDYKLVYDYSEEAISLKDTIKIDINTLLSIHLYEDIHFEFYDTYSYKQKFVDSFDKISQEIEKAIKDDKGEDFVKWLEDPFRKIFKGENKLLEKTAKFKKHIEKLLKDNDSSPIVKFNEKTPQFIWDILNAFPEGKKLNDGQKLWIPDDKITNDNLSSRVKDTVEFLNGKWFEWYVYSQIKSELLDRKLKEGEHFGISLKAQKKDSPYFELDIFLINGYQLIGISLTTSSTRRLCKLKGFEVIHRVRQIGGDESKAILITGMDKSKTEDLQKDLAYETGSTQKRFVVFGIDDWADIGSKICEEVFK


Tests used:
TbrCan2 E341A [1] = target: T1, TbrCan2 E341A; experiment: crystal structure 2.4 A
TbrCan2 E341A [2] = target: T1, TbrCan2 E341A; experiment: EMSA
TbrCan2 E364R = target: T2, TbrCan2 E364R; experiment: crystal structure
TbrCan2 E341A [3] = target: T1, TbrCan2 E341A; experiment: crystal structure 2.0 A
TbrCan2 E341A [4] = target: T1, TbrCan2 E341A; experiment: crystal structure 2.3 A

| Binder | binding result (TbrCan2 E341A [2]) | also measured |
| --- | --- | --- |
| TTTAAA (ssDNA) [TTTAAA (dKJ44)] |  | binding result (TbrCan2 E341A [1]): binds |
| TTTTTTTGGGTTTTTTTTTTTTTTTTTTTT (ssDNA) [T7-G3-T20 DNA (dKJ72)] | no binding |  |
| AAAAAAAAAAAAAAA (ssRNA) [rA15] | binds |  |
| UUUUUUUUUUUUUUU (ssRNA) [rU15] | no binding |  |
| UUUUUUUGGGUUUUUUUUUUUUUUUUUUUU (ssRNA) [U7-G3-U20 RNA (rKJ10)] | no binding |  |
| TTTTTT (ssDNA) [dT6 (dKJ46)] |  | binding result (TbrCan2 E364R): binds |
| AAAAAA (ssDNA) [dA6 (dKJ42)] |  | binding result (TbrCan2 E341A [3]): binds |
| TTTTTTTTTTTTTTT (ssDNA) [dT15 (dKJ62)] | no binding |  |
| CCCCCC (ssDNA) [dC6] |  | binding result (TbrCan2 E341A [4]): binds |

From paper PMC10783487
